# Patent US20150071856A1 (UNIVERSITEIT MAASTRICHT, published 2015)
# No end group written: not given here. alkyl = not defined here
# B1: Peptide UM206 (linear), Ac-Cys-Asn-Lys-Thr-Ser-Glu-Gly-Met-Asp-Gly-Cys-Glu-Leu-NH2 (peptide)
# peptide: Ac-CNKTSEGMDGCEL-NH2
# modifications: cysteine pairing not given here
# B2: UM206 (9 D = A) (peptide)
# peptide: CNKTSEGMAGCEL
# B3: UM206 (C = C-alkyl) (peptide)
# peptide: C(alkyl)NKTSEGMDGC(alkyl)EL
# modifications: reading uncertain; also: alkyl group not given here
# B4: UM206 (3 K = A) (peptide)
# peptide: CNATSEGMDGCEL
# B5: UM206 (4 T = A, 7 G = A, 9 D = A) (peptide)
# peptide: CNKASEAMAGCEL
# B6: UM206 (12-13 EL = AA) (peptide)
# peptide: CNKTSEGMDGCAA
# B7: UM206 (10 G = A) (peptide)
# peptide: CNKTSEGMDACEL
# B8: UM206 (C = A) (peptide)
# peptide: ANKTSEGMDGAEL
# B9: UM206 (8 M = A) (peptide)
# peptide: CNKTSEGADGCEL
# B10: UM206 (6 E = A) (peptide)
# peptide: CNKTSAGMDGCEL
# B11: UM206 (11 C = A) (peptide)
# peptide: CNKTSEGMDGAEL
# B12: UM206 (12 E = A) (peptide)
# peptide: CNKTSEGMDGCAL
# B13: UM206 (5 S = A) (peptide)
# peptide: CNKTAEGMDGCEL
# B14: UM206 (C = S) (peptide)
# peptide: SNKTSEGMDGSEL
# B15: peptide CNVSSHGIDGCDL (SEQ ID NO: 18), derived from the area of Wnt3a homologous to UM206 (peptide)
# peptide: CNVSSHGIDGCDL
# B16: UM206 (13 L = A) (peptide)
# peptide: CNKTSEGMDGCEA
# B17: UM206 (7 G = A) (peptide)
# peptide: CNKTSEAMDGCEL
# B18: UM206 (1 C = A) (peptide)
# peptide: ANKTSEGMDGCEL
# B19: UM206 - (label cut short in Table 3; taken as UM206 with the C-terminal Glu-Leu deleted) (peptide)
# peptide: CNKTSEGMDGC
# B20: UM206 (4 T = A) (peptide)
# peptide: CNKASEGMDGCEL
# B21: UM206 (2 N = A) (peptide)
# peptide: CAKTSEGMDGCEL
# B22: Peptide UM207 (linear), Ac-Gly-Ile-Lys-Glu-Cys-Gln-Tyr-Gln-Phe-Arg-His-Arg-Arg-Trp-Asn-Cys-Ser-Thr-Val-Asp-NH2 (peptide)
# peptide: Ac-GIKECQYQFRHRRWNCSTVD-NH2
# modifications: cysteine pairing not given here
# B23: UM208 (peptide)
# peptide: GSCSLKTCWLQLAD
# Target: T1, rFzd-2 (frizzled-2 receptor) (rat, UniProt Q08464 29-570)
# T1 sequence (Q08464 29-570): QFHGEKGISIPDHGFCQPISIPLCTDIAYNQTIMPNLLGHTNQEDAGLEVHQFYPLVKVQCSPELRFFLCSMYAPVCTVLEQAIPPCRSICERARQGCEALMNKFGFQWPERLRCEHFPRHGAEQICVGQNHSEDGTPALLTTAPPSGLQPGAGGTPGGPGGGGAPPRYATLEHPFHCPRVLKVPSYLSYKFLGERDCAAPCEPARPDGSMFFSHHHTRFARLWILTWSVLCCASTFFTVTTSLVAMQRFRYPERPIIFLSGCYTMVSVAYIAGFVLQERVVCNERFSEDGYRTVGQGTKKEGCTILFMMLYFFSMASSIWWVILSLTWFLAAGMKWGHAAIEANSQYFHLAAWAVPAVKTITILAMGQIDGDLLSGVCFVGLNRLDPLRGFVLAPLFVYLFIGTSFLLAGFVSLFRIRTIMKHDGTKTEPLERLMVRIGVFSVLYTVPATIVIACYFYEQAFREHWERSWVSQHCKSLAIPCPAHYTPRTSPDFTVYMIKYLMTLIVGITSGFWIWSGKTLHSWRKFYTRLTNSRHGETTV
# Assay: cell-based or functional assay
row,% of inhibition of Wnt3a-induced luciferase activity (peptide at 1.10^-9 M) [%],Binder
1,75.1,B1
2,60.5,B2
3,12.4,B3
4,84.9,B4
5,17.5,B5
6,74.3,B6
7,83.3,B7
8,8.39,B8
9,85,B9
10,84.7,B10
11,84.9,B11
12,85.5,B12
13,87.3,B13
14,17,B14
15,62.4,B15
16,86.5,B16
17,63.1,B17
18,82.6,B18
19,61.2,B19
20,59.4,B20
21,79.5,B21

# Target: T2, rFzd-1 (frizzled-1 receptor) (rat, UniProt Q08463 69-641)
# T2 sequence (Q08463 69-641): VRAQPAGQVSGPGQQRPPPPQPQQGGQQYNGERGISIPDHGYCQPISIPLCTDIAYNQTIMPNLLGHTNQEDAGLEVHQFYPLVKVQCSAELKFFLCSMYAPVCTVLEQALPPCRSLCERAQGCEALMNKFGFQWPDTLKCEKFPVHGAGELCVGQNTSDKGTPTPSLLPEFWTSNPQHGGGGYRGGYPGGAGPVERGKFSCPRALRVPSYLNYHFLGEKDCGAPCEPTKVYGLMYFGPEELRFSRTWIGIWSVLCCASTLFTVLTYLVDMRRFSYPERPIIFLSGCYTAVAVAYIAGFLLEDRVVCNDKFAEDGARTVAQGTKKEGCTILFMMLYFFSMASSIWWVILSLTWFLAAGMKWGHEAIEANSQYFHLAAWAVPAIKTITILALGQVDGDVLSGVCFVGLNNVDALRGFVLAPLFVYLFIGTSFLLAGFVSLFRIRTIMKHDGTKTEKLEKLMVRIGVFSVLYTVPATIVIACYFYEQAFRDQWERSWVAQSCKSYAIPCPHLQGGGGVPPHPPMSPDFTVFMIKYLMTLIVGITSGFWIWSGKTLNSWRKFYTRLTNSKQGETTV
# Assay: cell-based or functional assay
row,% of inhibition of Wnt3a-induced luciferase activity (peptide at 1.10^-9 M) [%],Binder
1,72.2,B1
2,40.5,B2
3,1,B3
4,70.8,B4
5,11.2,B5
6,66.8,B6
7,69.9,B7
8,0,B8
9,67.6,B9
10,70.8,B10
11,67.2,B11
12,65.9,B12
13,74.3,B13
14,0,B14
15,45.3,B15
16,65.9,B16
17,52.6,B17
18,70.8,B18
19,18,B19
20,28.1,B20
21,68,B21

# Target: T1, rFzd-2 (frizzled-2 receptor)
# Assay: cell-based or functional assay
# Remark: another data set of the same source
"IC50, inhibition of Wnt3a (10^-9 M)-induced luciferase, HEK293-superTOPflash, two-binding-state fit [nM]","affinity ratio against rFzd-1, from reporter IC50 values [fold]","IC50, inhibition of Wnt3a (10^-9 M)-induced luciferase, HEK293-superTOPflash, single binding site fit [nM]",Binder
0.0169,~100,–,B1
–,–,15.2,B22
–,–,2110,B23

# Target: T2, rFzd-1 (frizzled-1 receptor)
# Assay: cell-based or functional assay
# Remark: another data set of the same source
"IC50, inhibition of Wnt3a (10^-9 M)-induced luciferase, HEK293-superTOPflash, two-binding-state fit [nM]","IC50, inhibition of Wnt3a (10^-9 M)-induced luciferase, HEK293-superTOPflash, single binding site fit [nM]",Binder
2.1,–,B1
–,40,B22
–,2060,B23

# Target: T3, mouse Fzd-1 (mouse, UniProt O70421 69-642)
# T3 construct: whole, on cells; also called frizzled-1 (mouse)
# T3 sequence (O70421 69-642): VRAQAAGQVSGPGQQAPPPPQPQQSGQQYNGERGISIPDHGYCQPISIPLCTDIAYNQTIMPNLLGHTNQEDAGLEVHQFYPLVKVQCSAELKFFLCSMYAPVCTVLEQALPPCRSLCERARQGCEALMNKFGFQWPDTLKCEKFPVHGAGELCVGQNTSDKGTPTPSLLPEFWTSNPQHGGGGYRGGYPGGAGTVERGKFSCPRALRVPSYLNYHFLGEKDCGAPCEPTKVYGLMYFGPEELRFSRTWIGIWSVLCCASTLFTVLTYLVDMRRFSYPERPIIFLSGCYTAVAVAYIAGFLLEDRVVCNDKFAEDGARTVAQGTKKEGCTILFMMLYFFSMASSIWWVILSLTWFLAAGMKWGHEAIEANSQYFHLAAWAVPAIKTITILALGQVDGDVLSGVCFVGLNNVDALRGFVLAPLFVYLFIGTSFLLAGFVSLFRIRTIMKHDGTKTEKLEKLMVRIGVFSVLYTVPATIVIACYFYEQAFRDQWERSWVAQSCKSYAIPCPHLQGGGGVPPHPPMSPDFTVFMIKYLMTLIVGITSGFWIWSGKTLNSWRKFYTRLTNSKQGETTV
# Assay: competition: UM207 (1.10^-7 M) pre-incubated on mouse tissue sections, competitor UM206-rhodamine
# Procedure: (§1) Specificity of the binding site was confirmed by prior incubation of the tissue sections with UM207 (1.10⁻⁷ M) or recombinant Wnt3a (1.10⁻⁸ M). Both compounds completely abolished the binding of UM206-rhodamine to its receptors.
row,binding result,Binder
1,binds,B22

# Target: T4, mouse Fzd-2 (mouse, UniProt Q9JIP6 29-570)
# T4 construct: whole, on cells; also called frizzled-2 (mouse)
# T4 sequence (Q9JIP6 29-570): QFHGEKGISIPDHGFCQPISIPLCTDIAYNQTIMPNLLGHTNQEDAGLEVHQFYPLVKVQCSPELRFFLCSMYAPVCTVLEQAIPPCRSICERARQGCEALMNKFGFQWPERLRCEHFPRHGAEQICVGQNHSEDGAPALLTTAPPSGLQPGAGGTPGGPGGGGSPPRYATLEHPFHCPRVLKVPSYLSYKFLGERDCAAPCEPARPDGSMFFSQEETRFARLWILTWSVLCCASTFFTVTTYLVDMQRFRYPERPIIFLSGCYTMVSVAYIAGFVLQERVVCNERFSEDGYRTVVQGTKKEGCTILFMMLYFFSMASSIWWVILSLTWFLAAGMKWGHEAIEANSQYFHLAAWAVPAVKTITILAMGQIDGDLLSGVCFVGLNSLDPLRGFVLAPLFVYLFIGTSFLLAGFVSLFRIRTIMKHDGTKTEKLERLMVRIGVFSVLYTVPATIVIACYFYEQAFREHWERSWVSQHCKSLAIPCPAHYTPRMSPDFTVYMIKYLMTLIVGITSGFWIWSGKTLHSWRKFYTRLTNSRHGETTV
# Assay: as above
# Procedure: as §1
row,binding result,Binder
1,binds,B22
